Reference: article PMC11078399
Changes are numbered by the printed parent chain. Names may count otherwise.

Molecular target: T1, Fzo1 (yeast mitofusin), wild type (S. cerevisiae) (UniProt P38297)
T1 sequence: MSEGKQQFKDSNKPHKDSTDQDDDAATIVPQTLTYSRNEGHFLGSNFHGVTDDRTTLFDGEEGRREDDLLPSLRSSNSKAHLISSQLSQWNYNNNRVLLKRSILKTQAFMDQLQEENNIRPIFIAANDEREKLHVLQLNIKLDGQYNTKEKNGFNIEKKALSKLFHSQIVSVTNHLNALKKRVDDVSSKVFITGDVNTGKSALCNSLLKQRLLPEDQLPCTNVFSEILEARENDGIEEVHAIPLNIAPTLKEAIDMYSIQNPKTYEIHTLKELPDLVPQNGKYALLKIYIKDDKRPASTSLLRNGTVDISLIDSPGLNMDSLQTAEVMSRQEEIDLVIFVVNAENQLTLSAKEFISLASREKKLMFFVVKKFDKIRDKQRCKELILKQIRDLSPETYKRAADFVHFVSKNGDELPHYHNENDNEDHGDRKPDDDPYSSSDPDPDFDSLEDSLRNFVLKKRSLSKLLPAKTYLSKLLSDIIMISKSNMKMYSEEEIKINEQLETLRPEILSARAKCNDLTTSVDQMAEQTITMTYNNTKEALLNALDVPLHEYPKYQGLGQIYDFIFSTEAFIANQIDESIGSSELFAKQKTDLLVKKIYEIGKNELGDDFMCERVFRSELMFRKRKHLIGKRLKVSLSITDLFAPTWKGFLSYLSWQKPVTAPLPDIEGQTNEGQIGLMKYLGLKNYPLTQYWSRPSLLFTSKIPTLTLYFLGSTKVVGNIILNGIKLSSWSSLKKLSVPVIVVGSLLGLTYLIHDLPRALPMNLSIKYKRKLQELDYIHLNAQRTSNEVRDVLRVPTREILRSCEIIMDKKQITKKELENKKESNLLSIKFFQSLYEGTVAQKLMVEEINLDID

B1: Fzo1 S201N (GTPase domain mutant) (natural protein)
chain: T1 sequence with S201N
In the case of B1, the ex vivo PerMit contact assay with mitochondria from pex34Δ cells: decrease of specific mitochondrial attachment to peroxisome beads with FZO1 S201N against WT FZO1 mitochondria is reported as 17%.
